Experimental data from the nanobody polyreactivity screen of Harvey et al. (2022).

Experiment: yeast display, Sf9 membrane polyspecificity reagent, FACS + sequencing; frameworks hold sequencing errors
In short: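 Polyreactivity labels are assigned by the sorting gate from which each nanobody was recovered. The gates were low and high (top ~1%), set on anti-HA fluorescence for expression and streptavidin fluorescence for reagent binding. Before sorting, galactose-induced (36–48 hours) yeast display cells were stained for 1 hour at 4 °C with 10% biotinylated, detergent-solubilized Sf9 membrane reagent.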

Sequence	polyreactivity (PSR sort gate)
QDQLVESGGGLVQAGGSLRLSCAASGFIFGYYAMGWYRQAPGKERDLFAAINKNGGSTYYADSVKGRFTISRDNAKNTFYLQRNSLIPEDTAVYYCASRARGYAWTYDYWGQGTQVTVSS	high polyreactivity
QVQLVESGGGLVQAGGSLRLSCAAYGSTFDRNVMGWYRQAPGKERELVAAISRVSSTNYADSVKGRFTISRDNAKNTVYLQMNSLKPEDTAVYYCAADRPGSIMNYWGQGTQVTVSS	low polyreactivity
QVQLVESGGGLVQAGGSLRLSCAASGSIFSFNAMGWYRQAPGKERELVAVITRNGGSTYYADSVKGRFTISRDNAKNTVYLQKNSLKPEDTAVYYCAKRLYRHIMGYWGQGTQVTVSS	high polyreactivity
QVQLVESGGGLVQAGGSLRLSCAASGRIFAFSAMGWSRQAPGKERELVAAISSGGSTYYADSVKGRFTISRDNAKNTVYLQMNSLKPEDTAVYYCAASGLYYYRYRYYYWGQGTQVTVSS	high polyreactivity
QVQLVESGGGLVQAGGSLRLSCAASGITFWRTAMGWYRQAPGKEREFVAAITWTGGRTYYADSVKGRFTISRDNAQNTVYLQMNSLKPEDTAVYYCATGQSRDYYWGQGTQGTVSS	high polyreactivity
QVQLVESGGGLVQAGGSLRLSCAASGSTYWNAMGWYRQAPGKERELVAAITFRGGSTYADSLKGRFTISRDNAKNTVSLQMISLKPEDTAVYYCAKASYHRWYNVRNRAGYDYWGQGTQVTVSS	high polyreactivity
QVQLVESGGGLVQAGGSLRLSCAASGSTFYAYDMGWYRQAPGKERELVAAISSGGSTYYADSVKGRFTISRDNAKNTVYLQMNSLKPEDTAVYYCATEYTYELEASEPSDYDYWGQGTQVTVSS	low polyreactivity
QVQLVESGGGLVQAGGSLRLSCAASGFTFCKYTMGWYRQAPGKERELVAAITNSGTSTYYADSVKGRFTISRDNAKNTVYLQMNSLKPEDTAVYYCARDNEPDYYSYPYDYWGQGTQVTVSS	low polyreactivity
QVQLVESGGGLVQAGGSLRLSCAASGSTFTIYAMGWYRQAPGTERELVATIRAGGGRTSYADSVKGRFTISRDNAKNTVYLQMNSLKPEDTAVYYCAVYVRPTRYGYWGQGTQVTVSS	high polyreactivity
QVQLVESGGGLVQAGGSLRLSCAASGFIFKPNALGWYRQAPGKERELVAAITWGGDNTYYADSVKGRFTISRDNAKNTVYLQMNSLKPEDSAVYYCAAEWKFHSDASYIYDYWGQGTQVTVSS	high polyreactivity
QVQLVESGGGLVQAGGSLRLSCAASGSIFNYYAMGWYRQAAGKERELVAVITSGGSTYYAESVKGRFTISRDNAKYSVYLQMNSLKPEDTAVYFCAADDGTGEASVSSNLYDYWGQGTQVTVSS	low polyreactivity
QVQLVESGGGLVQAGGSLRLSCAASGSTFGRNAMGWYRQAPGKERELVAAISYSGGSTYYADSVKGRFTISRDNAKNTVYLQMNSLKPEDTAVYYCNTVPKPWYSWKYAYDYWGQGTQVTVSS	high polyreactivity
QVQLVESGGGLVQAGGSLRLSCAACGGTFGNYAMGWYRQAPGKDRELVAAISTRGGSTYYADSVKGRFTISRDNAKNTVYLQMNSLKPEDTAVYYCNARIKRPRGVYGGDYWGQGTQVTVSS	high polyreactivity
QVQLVESGGGLVQAGGSLRLSCAASGYTIYVNAMGRYRQAPAKQRQLVASNRRDSTYYADSVKGRFTISRDNAKNTVYLQMNSLKPEDSAVYYCAVDWYPWLYDGRTYEYWGQGTQVTVSS	low polyreactivity
QVQLVESVGGLVQAGGSLRLSCAASGYTLGDYAMGWYRQAPGKERELVAVITRNGGRTYYADSVKGRFTISRDNAKNTVYLQMNSLKPEDTAVYYCNRDTSIRHYNYWGQGTQVTVSS	high polyreactivity
QVQLEDSGGGLVQAGGSLRLSCAASGRTLYLYAMGWYRQAPGKERELVAAIDWRGTSTYYADSVKGRFTISRDNAKNTVYLEMNSLKPEDTAVYYCNARFRSYLRWYQRDYWGQGTKVTVSS	low polyreactivity
QVQLVESGGGLVQAGGILRLTCAASGSIFGTYAMGWYRTPPGKERELVSAITRRSGRTYYADSVKGRFTISRDNAKNTVNLQMNCLKQEDTAVYYCAKRPVIDDDYWGQGTQETVSS	high polyreactivity
QVQLVESGGGLVQEGGSLRLTCAASGRIFQRYAMGWYSPPPGKERELVAVITKRGGNTYYADSVKGRFTLSRDNAKNTVYLQMNSLKPEDTAVYYCATRSGRSTGDYWGQGTQVTVSS	high polyreactivity
QVQLVESGGGLVQAGGSLRLSCAASGRTFQYYAMGWYRQAPGKEREFVAAISRSGGSTYYADSVKGRFTISRDNAKNTVYLQMNSLKPEDTAVYYCAADAYRSSYDYWGQGTQVTVSS	low polyreactivity
QVQLVESGGGLVQAGGSLRLSCAASGRIFYRNAMGWYRQAPGKERELVAAISKSGGSTYYADSVKGRFTISRDNAKNTVYLQMNSLKPEDTAVYYCNARPGQSGARFGYWGQGTQVTVSS	high polyreactivity
QVQLQESGGGQVQAGGSLRLSCAPSGYISSWYPKGWYRQAPGKEPEFVATIAPGATNYYADSVKGRFTISRDYAKNTVYQQMNSLKPEDTAVYYCAVVSNGRRERYYYWGQGTQVTVSS	low polyreactivity

Sequence	polyreactivity (PSR sort gate)
QVQLVESGGGLVQAGGSLRLSCAASGRIFGVYAMGWSRQAPGKERELVAAITARGGSTYYADSVKGRFTISRDNAKNTVYLQMNSLKPEDTAVYYCNAARSTSRPYDYWGQGTQVTVSS	high polyreactivity
QVQLVESGGGLVQAGGSLRLSCAASGIIIGLYGRGWYRQAPGKERELVAAISSSGGSTYYADSVKGRFTISRDNAKNTVYLQINSLKPEDTAVYYCARVVRSLWGGLYLYDYWGQGTQVTVSS	low polyreactivity
QVQLVESGGGLVQAGGSLRLSCAASGSTFPTYAMGWYRQAPGKERELVAAITSGSGTNTYYADSVKGRFTISRDNAKNTVYLQMNSLKPEDTAVYYCAKSFRKKYGWGQGTQVTVSS	high polyreactivity
QVQLVESGGGLVQAGGRLRLSCAASGRIFYHNAMGWYRQAPGKERELVAAITWSGVSTYYADSVKGRFTISRDNAKNTVYLQMNSLKPEDTAVYYCAKRGRWDWDFNYWGQGTQVTVSS	high polyreactivity
QVQLVESGGGLVQAGGSLRLSCAASGSTFETYAMGWYRQAPGKERELVAVITSDGSTNYADSVKGRFTISRDNAKNTVYLQMNSLKPEDTAVYYCNADYGFYVPGYPIYWIYEYWGQGTQVTVSS	low polyreactivity
QVQLVESGGGLVQAGGSLRLSCAATGSTFDPNVMGWYRQAPGKEREFVAAISSRSGSTSYADSVKGRFTISRDNAKNTVYLQMNCLKPEVTAVYYCAARVYGLPLRMYSWGQGTQVTLSS	high polyreactivity
QVQLVESGGGLVQAGGSLRLSCAASGSIFDDYAMGWYRQAPGKEREFVATITTSGGNTYYADSVKGRFTISRDNAKNTVYLQMHSLKPEDTAVYYCAKDRVKSPYLVYDSWGQGTQVTVSS	low polyreactivity
QVQIVESGGGLVQAGGSLRLSCAASGRILVPYTMGWYRQAPGKERELVAAITIGGRTTYADSVKGRFTISRDNAKNTVYLQMNSLKPEDTAVYYCAKRDWRYEWYGYDYWGQGTQVTVSS	low polyreactivity
QVQLVESGGGLVQAGGSLRLSCAASGRTFNPYAMGWYRQAPGKERELVAVISSIGGSTYADSVKGRFTISRDNAKNTVYLQMNSLKPEDTAVYYCNRATFGQWGGDYWGQGTQVTVSS	high polyreactivity
QVQLVESGGGLVQAGGSLPLSCAASGSTFGYNAMGWYRQAPGKERELVAAITWTGASTYYADSVKGRFTISRDNAKNTVYLQMNSLKPEDTAVYYCNARFGKRGYSPPYDYWGQGTQVTVSS	low polyreactivity
QVQLVESGGGLVQAGGSLRLSCAASGSTFKPNVMGWYRPAPGKERELVAAITSTDDRTYYADSVKGRFTISRDNAKNTVYLQMNSLKPEDTAVYYCNRPYAWYGYIYNYWGQGTQVTVSS	low polyreactivity
QVQLVESGGGLVQAGGSLRLSCAASGSTFYSYAMGWYRQAPGKERELVAAISWNGGSTYYADSVKGRFTISRDNAKNTVYLQMNRLKPEDTAVYYCAALRYVHGYDYWGQGTQVTVSS	high polyreactivity
QVQLVESGGGLVQAGGSLRLSCAASGRIFDRKAMGWYRQAPGKERELVAAISSRDGSTYYADSVKGRFTISRDNAKNTVYLQMNSLKPEDTGVYYCNRVSRGPVGGYYWGQGTQVTVSS	high polyreactivity
QVQLVESGGGLVQAGGSLRLSCAASGYTFWLYAMGWYRQAPGKERELVATISRRAGTTYYADSVKGRFTISRDNAKNTVYLQMNSLKPEDTAVYYCNTDGYPRLYIYDYWGQGTQVTVSS	low polyreactivity
QVQLVESGGGLVQAGGSLRLICAASGRTSYTYVMGWYRQAPGKERELVAAIRLSGGNTYYADSVKGRFTISRDNAKNTVYLQMNSLKPEDTAVYYCAAQYWRHRKAYGYWGQGSQVTVSS	high polyreactivity
QVQLVESGGGLVQAGGSLRLSCAASGSIFAGHAMGWSIQAPGKERELVAAISRRGGNTYYADSVKGRFTISRDNAKNTVYLQMNSLKPEDTAVYYCAVRSRLYSSSIAYDYWGQGTQVTVSS	high polyreactivity
QVQLVESGGGLVQAGGSLRLSCAASGRISTAYAMGWYRQAPGKERELVAAISSGTSTTYADSVKGRFTISRDNAKNTVYLQMNSLQPEDTAVYYCNADSWYGHYDSWGQGTQVTESS	low polyreactivity
QVQLVESGGGLVQAGGSLRISCAASGFIFYSYPMGWYRQAPGKERELVAAISTSGGSTYYADSVKGRFTISRDNAKNTVYLQMNSLKPEDTAVYYCAVGRKFGRYRVPFVVPYEYWGHGTQVTVSS	high polyreactivity
QVQLVESGGGLVQAGGSLRLSCAASGSILALYTMGWYRQAPGKEREFVATITSSDGSTYYADSVKGRFTISRDNAKNTVYLQMNSLKPEDTAVYYCNARGSVYYLKFDYWGQGTQVTVSS	low polyreactivity
QVQLVESGGGLVEAGGSHRLTCAASGSTFGWYPIGWYRQAPGTERELVAGINSRGGSTYYADSVKGRFTISRDNAQNTVYLQMNSLKPEDTAVYYCNTVWASRRAHDYWGQGTQVTVSS	high polyreactivity
